From patent publication WO2012132067A1 (dated 2012) come the findings set out here.

Bounds are passed on as bounds.

One assay concerns the target T1, mouse FcγRIII (mouse, UniProt P08508 31-215).
T1 sequence (looked up): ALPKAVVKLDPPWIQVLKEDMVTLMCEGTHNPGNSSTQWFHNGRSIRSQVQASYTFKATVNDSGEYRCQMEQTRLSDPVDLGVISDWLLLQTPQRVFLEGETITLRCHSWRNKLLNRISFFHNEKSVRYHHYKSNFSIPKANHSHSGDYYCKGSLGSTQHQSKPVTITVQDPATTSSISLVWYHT
Nature of the assay: SPR (Biacore), antibody held on immobilised mouse FcRn, FcγR injected, pH 7.4, 25 C. In general terms: In SPR one partner is held on a chip, and binding of the other changes the refractive index at the surface.

In another assay the target is T2, mouse FcγRI (mouse, UniProt P26151 25-297).
T2 sequence (looked up): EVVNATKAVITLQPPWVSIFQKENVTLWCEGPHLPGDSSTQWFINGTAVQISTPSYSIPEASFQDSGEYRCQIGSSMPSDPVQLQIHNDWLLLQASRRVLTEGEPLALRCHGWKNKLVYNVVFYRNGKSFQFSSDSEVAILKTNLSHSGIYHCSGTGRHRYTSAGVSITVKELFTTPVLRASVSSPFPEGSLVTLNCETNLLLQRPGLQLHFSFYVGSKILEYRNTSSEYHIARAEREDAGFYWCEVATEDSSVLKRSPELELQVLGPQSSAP
The assay is described as above.

A further assay addresses T3, mouse FcγRIIb (mouse, UniProt P08101 30-210, limits assumed).
T3 sequence (looked up): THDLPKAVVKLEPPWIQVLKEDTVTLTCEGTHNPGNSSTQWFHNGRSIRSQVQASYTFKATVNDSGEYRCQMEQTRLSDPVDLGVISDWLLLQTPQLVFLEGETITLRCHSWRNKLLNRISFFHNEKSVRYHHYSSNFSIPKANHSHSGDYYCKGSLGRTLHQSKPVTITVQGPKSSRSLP
The description is as above.

In assay [1] the target is T4, soluble human IL-6 receptor (human, UniProt P08887 20-357).
T4 construct: The stated range 1-357 is that of the expressed construct; also called hsIL-6R
T4 sequence: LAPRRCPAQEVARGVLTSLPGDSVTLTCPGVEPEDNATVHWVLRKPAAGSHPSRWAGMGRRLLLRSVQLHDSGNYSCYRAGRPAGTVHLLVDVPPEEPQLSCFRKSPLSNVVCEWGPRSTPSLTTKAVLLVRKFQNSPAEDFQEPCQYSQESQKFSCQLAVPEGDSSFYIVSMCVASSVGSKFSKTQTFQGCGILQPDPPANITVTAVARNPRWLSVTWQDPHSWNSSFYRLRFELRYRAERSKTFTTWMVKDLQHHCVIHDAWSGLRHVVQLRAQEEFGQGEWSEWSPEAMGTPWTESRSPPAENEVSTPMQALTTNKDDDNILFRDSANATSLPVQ
Nature of the assay: summary of the Biacore result of Reference Example 7, told in Reference Example 12.

The target in assay [2] is T5, human FcRn (human, UniProt P55899 24-290; P61769 21-119, limits assumed).
T5 construct: also called hFcRn
Kind of assay: Biacore, human FcRn, pH 7.0 (Table 20 not given).

For assay [3], the target named is T6, human FcγRIIb (human, UniProt P31994 43-217, limits assumed).
T6 construct: also called hFcgRIIb
T6 sequence: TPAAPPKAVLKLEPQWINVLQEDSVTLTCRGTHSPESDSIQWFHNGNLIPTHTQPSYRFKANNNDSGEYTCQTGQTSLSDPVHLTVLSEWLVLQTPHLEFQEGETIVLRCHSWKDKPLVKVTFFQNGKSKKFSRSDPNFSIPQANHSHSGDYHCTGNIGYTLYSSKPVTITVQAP
Nature of the assay: Biacore T100, Protein L capture, FcγR injected, pH 7.4, 25 C (Table 19 not given).

Assay [4] deals with T5, human FcRn. Nature of the assay: Biacore, Protein L capture, human FcRn injected, pH 7.0 (Table 6 not given).
Assay [5] concerns the target T6, human FcγRIIb. Kind of assay: Biacore T100, Protein A capture, 25 C; against IgG1 (IL6R-G1d).
A further assay has as its target T7, human FcγRIIa(H) (human, UniProt P12318 36-217).
T7 construct: also called hFcgRIIa(H); FcγRIIa H type
T7 sequence: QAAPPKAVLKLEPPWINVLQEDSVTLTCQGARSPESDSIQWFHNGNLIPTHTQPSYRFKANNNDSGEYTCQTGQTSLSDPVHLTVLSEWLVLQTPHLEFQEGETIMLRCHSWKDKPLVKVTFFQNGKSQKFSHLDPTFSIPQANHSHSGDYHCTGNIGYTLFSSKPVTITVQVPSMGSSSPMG
The assay is described as above.

A further assay concerns the target T8, human FcγRIIa(R) (human, UniProt P12318 36-217).
T8 construct: also called hFcgRIIa(R); FcγRIIa R type
T8 chain: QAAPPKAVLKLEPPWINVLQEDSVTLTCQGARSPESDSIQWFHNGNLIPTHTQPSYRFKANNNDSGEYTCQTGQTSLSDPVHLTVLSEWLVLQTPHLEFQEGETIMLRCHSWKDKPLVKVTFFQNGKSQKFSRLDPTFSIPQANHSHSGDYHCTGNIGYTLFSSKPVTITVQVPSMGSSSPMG
Kind of assay: Biacore T100, Protein A capture, 25 C; against IgG1 (IL6R-G1d); the Japanese text says improved 522-fold.

T5 sequence (P55899 24-290 limits assumed, chain 1 of 2): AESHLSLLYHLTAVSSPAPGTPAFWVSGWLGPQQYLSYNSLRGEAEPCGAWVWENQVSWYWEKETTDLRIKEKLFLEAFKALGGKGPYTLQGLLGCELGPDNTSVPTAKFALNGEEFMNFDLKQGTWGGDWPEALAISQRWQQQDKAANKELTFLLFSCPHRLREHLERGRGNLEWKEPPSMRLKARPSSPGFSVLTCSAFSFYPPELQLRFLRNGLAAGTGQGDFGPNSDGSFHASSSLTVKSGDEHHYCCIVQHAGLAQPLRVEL
T5 sequence (P61769 21-119 limits assumed, chain 2 of 2): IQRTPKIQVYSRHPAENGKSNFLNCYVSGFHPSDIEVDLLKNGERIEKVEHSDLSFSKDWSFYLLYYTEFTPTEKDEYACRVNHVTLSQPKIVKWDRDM

B1: Fv4-IgG1-F20 (antibody)
heavy: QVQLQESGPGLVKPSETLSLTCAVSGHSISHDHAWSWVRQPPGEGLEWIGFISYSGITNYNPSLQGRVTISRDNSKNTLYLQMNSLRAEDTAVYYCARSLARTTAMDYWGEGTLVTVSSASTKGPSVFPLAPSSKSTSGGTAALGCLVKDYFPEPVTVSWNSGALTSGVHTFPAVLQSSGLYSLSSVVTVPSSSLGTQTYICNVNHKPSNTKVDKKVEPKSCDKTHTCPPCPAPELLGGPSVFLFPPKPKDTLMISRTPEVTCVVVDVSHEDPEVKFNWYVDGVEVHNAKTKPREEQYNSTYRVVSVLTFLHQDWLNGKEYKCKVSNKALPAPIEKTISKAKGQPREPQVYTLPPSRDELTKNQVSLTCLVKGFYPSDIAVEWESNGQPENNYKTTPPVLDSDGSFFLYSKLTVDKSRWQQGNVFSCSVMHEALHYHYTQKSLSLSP
light: DIQMTQSPSSLSASVGDSVTITCQASTDISSHLNWYQQKPGKAPELLIYYGSHLLSGVPSRFSGSGSGTDFTFTISSLEAEDAATYYCGQGNRLPYTFGQGTKVEIERTVAAPSVFIFPPSDEQLKSGTASVVCLLNNFYPREAKVQWKVDNALQSGNSQESVTEQDSKDSTYSLSSTLTLSKADYEKHKVYACEVTHQGLSSPVTKSFNRGEC
notes: VH3-IgG1-F20 with VL3-CK; copies: 2 + 2
In the case of B1, the binding result with mouse FcγRIII, in the assay with mouse FcγRI and with mouse FcγRIIb was “binds” each time.

B2: mPM1-mIgG1-mF3 (antibody)
heavy: DVQLQESGPVLVKPSQSLSLTCTVTGYSITSDHAWSWIRQFPGNKLEWMGYISYSGITTYNPSLKSRISITRDTSKNQFFLQLNSVTTGDTSTYYCARSLARTTAMDYWGQGTSVTVSSAKTTPPSVYPLAPGSAAQTNSMVTLGCLVKGYFPEPVTVTWNSGSLSSGVHTFPAVLQSDLYTLSSSVTVPSSTWPSETVTCNVAHPASSTKVDKKIVPRDCGCKPCICTVPEVSSVFIFPPKPKDVLYITLEPKVTCVVVDISKDDPEVQFSWFVDDVEVHTAQTQPREEQFNSTFRSVSELPIMHQDWLNGKEFKCRVNSAAFPAPIEKTISKTKGRPKAPQVYTIPPPKEQMAKDKVSLTCMITDFFPEDITVEWQWNGQPAENYKNTQPIMDTDGSYFVYSKLNVQKSNWEAGNTFTCSVLHEGLKFHHTEKSLSHSPGK
light: DIQMTQTTSSLSASLGDRVTISCRASQDISSYLNWYQQKPDGTIKLLIYYTSRLHSGVPSRFSGSGSGTDYSLTINNLEQEDIATYFCQQGNTLPYTFGGGTKLEIKRADAAPTVSIFPPSSEQLTSGGASVVCFLNNFYPKDINVKWKIDGSERQNGVLNSWTDQDSKDSTYSMSSTLTLTKDEYERHNSYTCEATHKTSTSPIVKSFNRNEC
notes: Mouse IgG1 anti-human IL-6R antibody of mPM1H-mIgG1-mF3 and mPM1L-mk1; copies: 2 + 2
Consider B2, for which the binding result with mouse FcγRIII was “binds”; with mouse FcγRI it was “no binding”; in the assay with mouse FcγRIIb, “binds”.

B3: FH4-IgG1 (antibody, V domains shown)
VH: QVQLVQSGAEVKKPGSSVKVSCKASGGTFSSYAISWVRQAPGQGLEWMGGIIPIFGTANYAQKFQGRVTITADESTSTAYMELSSLRSEDTAVYYCARERDYYDSSGYYDAFDIWGQGTMVTVSS
VL: ETTVTQSPSFLSASVGDRVTITCITTTDIDDDMNWFQQEPGKAPKLLISEGNILRPGVPSRFSSSGYGTDFTLTISKLQPEDFATYYCLQSDNLPFTFGQGTKLEIKR
notes: Ca-dependent anti-human IL-6 receptor antibody from a naive human phage library
As for B3, the “Ca-dependence of binding (fold)” value in assay [1] is at least 100 fold.

B4: VH3/L(WT)-IgG1-F652 (antibody)
heavy: QVQLQESGPGLVKPSETLSLTCAVSGHSISHDHAWSWVRQPPGEGLEWIGFISYSGITNYNPSLQGRVTISRDNSKNTLYLQMNSLRAEDTAVYYCARSLARTTAMDYWGEGTLVTVSSASTKGPSVFPLAPSSKSTSGGTAALGCLVKDYFPEPVTVSWNSGALTSGVHTFPAVLQSSGLYSLSSVVTVPSSSLGTQTYICNVNHKPSNTKVDKKVEPKSCDKTHTCPPCPAPELLGGDSVFLFPPKPKDTLYISRTPEVTCVVVDVSHEDPEVKFNWYVDGVEVHNAKTKPREEQYNSTYRVVSVLTVLHQDWLNGKEYKCKVSNKALPAPIEKTISKAKGQPREPQVYTLPPSRDELTKNQVSLTCLVKGFYPSDIAVEWESNGQPENNYKTTPPVLDSDGSFFLYSKLTVDKSRWQQGNVFSCSVMHEALHYHYTQKSLSLSP
light: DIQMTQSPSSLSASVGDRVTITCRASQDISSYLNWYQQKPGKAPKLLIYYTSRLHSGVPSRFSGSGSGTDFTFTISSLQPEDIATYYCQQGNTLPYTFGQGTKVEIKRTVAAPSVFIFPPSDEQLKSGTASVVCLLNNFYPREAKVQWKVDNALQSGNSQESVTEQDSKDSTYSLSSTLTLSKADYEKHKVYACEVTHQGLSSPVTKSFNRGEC
notes: VH3-IgG1-F11 with P238D (EU); copies: 2 + 2
In the case of B4, the binding result with human FcRn [2] and with human FcγRIIb [3] was “binds” each time.

B5: VH3/L(WT)-IgG1-F21 (antibody)
heavy: QVQLQESGPGLVKPSETLSLTCAVSGHSISHDHAWSWVRQPPGEGLEWIGFISYSGITNYNPSLQGRVTISRDNSKNTLYLQMNSLRAEDTAVYYCARSLARTTAMDYWGEGTLVTVSSASTKGPSVFPLAPSSKSTSGGTAALGCLVKDYFPEPVTVSWNSGALTSGVHTFPAVLQSSGLYSLSSVVTVPSSSLGTQTYICNVNHKPSNTKVDKKVEPKSCDKTHTCPPCPAPELLGGPSVFLFPPKPKDTLYISRTPEVTCVVVDVSHEDPEVKFNWYVDGVEVHNAKTKPREEQYNSTYRVVSVLTPLHQDWLNGKEYKCKVSNKALPAPIEKTISKAKGQPREPQVYTLPPSRDELTKNQVSLTCLVKGFYPSDIAVEWESNGQPENNYKTTPPVLDSDGSFFLYSKLTVDKSRWQQGNVFSCSVMHEALHYHYTQKSLSLSP
light: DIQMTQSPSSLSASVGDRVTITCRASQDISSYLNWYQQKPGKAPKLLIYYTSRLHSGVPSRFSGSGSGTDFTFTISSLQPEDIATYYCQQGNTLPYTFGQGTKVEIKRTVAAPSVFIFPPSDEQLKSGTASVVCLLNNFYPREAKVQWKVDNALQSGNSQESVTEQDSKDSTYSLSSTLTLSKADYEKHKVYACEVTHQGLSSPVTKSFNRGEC
notes: Measured with light chain L(WT)-CK; result sentences name it Fv4-IgG1-F21; also called Fv4-IgG1-F21; copies: 2 + 2
For the molecule B5, in the assay with human FcRn [4], the binding result is “binds”.

B6: VH3/L(WT)-IgG1-F157 (antibody)
heavy: QVQLQESGPGLVKPSETLSLTCAVSGHSISHDHAWSWVRQPPGEGLEWIGFISYSGITNYNPSLQGRVTISRDNSKNTLYLQMNSLRAEDTAVYYCARSLARTTAMDYWGEGTLVTVSSASTKGPSVFPLAPSSKSTSGGTAALGCLVKDYFPEPVTVSWNSGALTSGVHTFPAVLQSSGLYSLSSVVTVPSSSLGTQTYICNVNHKPSNTKVDKKVEPKSCDKTHTCPPCPAPELLGGPSVFLFPPKPKDTLMISRTAEVTCVVVDVSHEDPEVKFNWYVDGVEVHNAKTKPREEQYNSTYRVVSVLTPLHQDWLNGKEYKCKVSNKALPAPIEKTISKAKGQPREPQVYTLPPSRDELTKNQVSLTCLVKGFYPSDIAVEWESNGQPENNYKTTPPVLDSDGSFFLYSKLTVDKSRWQQGNVFSCSVLHEALHYHYTQKSLSLSP
light: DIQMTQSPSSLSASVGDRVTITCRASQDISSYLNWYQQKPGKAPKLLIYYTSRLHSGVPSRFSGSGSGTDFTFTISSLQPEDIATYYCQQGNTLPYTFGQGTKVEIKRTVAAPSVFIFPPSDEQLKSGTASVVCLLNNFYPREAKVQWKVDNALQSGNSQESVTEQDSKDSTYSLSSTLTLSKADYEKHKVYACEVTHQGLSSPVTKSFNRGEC
notes: also called Fv4-IgG1-F157 (name in result sentence); copies: 2 + 2
Turning to B6, the binding result with human FcRn [4] is “binds”.

B7: IgG1-v3 (IL6R-G1d_v3/IL6R-L) (antibody)
heavy: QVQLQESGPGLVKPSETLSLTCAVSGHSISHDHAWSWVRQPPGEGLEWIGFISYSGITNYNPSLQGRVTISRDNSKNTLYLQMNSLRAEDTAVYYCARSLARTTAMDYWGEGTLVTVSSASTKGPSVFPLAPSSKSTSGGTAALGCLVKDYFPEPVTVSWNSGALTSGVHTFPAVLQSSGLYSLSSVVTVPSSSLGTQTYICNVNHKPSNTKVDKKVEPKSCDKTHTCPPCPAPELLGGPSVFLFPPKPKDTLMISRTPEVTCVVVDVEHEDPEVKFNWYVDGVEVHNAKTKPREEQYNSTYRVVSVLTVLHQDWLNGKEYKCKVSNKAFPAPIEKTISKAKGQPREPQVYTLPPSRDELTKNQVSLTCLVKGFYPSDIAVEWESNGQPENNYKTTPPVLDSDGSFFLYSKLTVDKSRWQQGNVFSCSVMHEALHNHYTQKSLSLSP
light: DIQMTQSPSSLSASVGDRVTITCRASQDISSYLNWYQQKPGKAPKLLIYYTSRLHSGVPSRFSGSGSGTDFTFTISSLQPEDIATYYCQQGNTLPYTFGQGTKVEIK
notes: IL6R-G1d with S267E/L328F (EU), known mutation used for comparison; copies: 2 + 2
As for B7, the “relative KD (KD of IgG1 divided by KD of the variant)” value with human FcγRIIb [5] came out at 408 fold; in the assay with human FcγRIIa(H), 0.51 fold; with human FcγRIIa(R) it was 522 fold.

B8: 6RL#9-IgG1 (antibody, V domains shown, not shown: a dimerising Fc or GST)
VH: QVQLVQSGAEVKKPGASVKVSCKASGYTFTSYYMHWVRQAPGQGLEWMGIINPSGGSTSYAQKFQGRVTMTRDTSTSTVYMELSSLRSEDTAVYYCARDDPGGGEYYFDYWGQGTLVTVSS
VL: QSVLTQPPSVSGAPGQRVTISCTGSRSNMGAGYDVHWYQLLPGAAPKLLISHNTHRPSGVPDRFSGSKSGASASLAITGLQAEDEADYYCQSHDSSLSAVVFGGGTKLTVLS
notes: Ca-dependent anti-human IL-6 receptor antibody from a naive human phage library; also called 6RL#9 antibody
On to B8, for which the “Ca-dependence of binding (fold)” value in assay [1] was at least 100 fold.
